Data: US20120253008A1 (Ablynx, published 2012)

target: T1, human serum albumin (human, UniProt P02768 25-609); experiment: phage ELISA, phage titration on coated HSA, near-infrared fluorescence
T1 construct: also called HSA
Method: 5-fold serial dilutions of phage clones (starting from ˜5×10¹¹ phage) were added to 96-well Nunc Maxisorp plates coated with human serum albumin (2 μg/ml in PBS, overnight at 4° C.; plates were blocked with Superblock T20 (Pierce) for 1 h at room temperature). […] The amount of IRDye bound was measured on Odyssey (LI-COR Biosciences). The dilution of phage was plotted against measured near-infrared fluorescence intensity (FIG. 2).
After respectively three and four selection rounds, monoclonal phage were screened for binding on HSA, in the manner described in Example 2. Clones that bind to HSA (FIGS. 7A to 7C and Table V) were screened in phage competition ELISA, in the manner described in Example 5. The ratio of phage binding was calculated by the following equation: fluorescence signal of well with 2 μM competitor/fluorescence signal of well with no competitor (Table VI).

Row | binding result | Binder
1 | binds | AARWWDYDVFGGGTPVGG [59A5]
2 | binds | AARYWDFDVFGGGSPVGG [59H10]
3 | binds | AARYWDYDVFGGGTPVDG [60E6]
4 | binds | AARYWDFDAFGGGTPVGG [59B3]
5 | binds | AARYWDYDVFGGGSQVGG [60F1]
6 | binds | AARYWDYDVFGGGSPVGG [60G5]
7 | binds | AARYWDWDVFGGGTPVGG [59C8]
8 | binds | AARFWDYDVFGGGTPVGG [59B2]

target: T1, human serum albumin; experiment: phage ELISA and/or solution binding competition ELISA on HSA

Row | binding result | Binder
9 | binds | AALYGDYDVFGGGTPLGE [PMP54F2]
10 | binds | AARYYDYDVFGGGTRSGE [PMP54C1]
11 | binds | AARYFDYDVFGGGTDLGD [PMP54D2]
12 | binds | AAYYFDYDVFGGGTPEGT [PMP56G1]
13 | binds | AARYYDYDVFGGGTAGGQ [PMP56A6]
14 | binds | AARYYDYDVFGGGTPLGG [PMP56E6]
15 | binds | AARYYDYDVFGGGTPLGA [PMP56E5]
16 | binds | AARYYDYDVFGGGTPLGA [PMP56E3]
17 | binds | AARYYDYDVFGGGTPLGA [PMP56C3]
18 | binds | AATYFDYDVFGGGTAVGS [PMP54G1]
19 | binds | AARYPDYDVFGGGTPVGG [PMP54C2]
20 | binds | AARYPDYDVFGGGTPSGG [PMP56C6]
21 | binds | AARYLDYDVFGGGTQLGS [PMP54D3]
22 | binds | AAWYTDYDVFGGGTPQGG [PMP56F1]
23 | binds | AARYWDYDVFGGGTPQGE [PMP56C2]
24 | binds | AAVYWDYDVFGGGTSLGD [PMP56B6]
25 | binds | AARYLDYDVFGGGTDVGS [PMP54F3]
26 | binds | AALYRDYDVFGGGTQVGE [PMP54G3 (SEQ ID NO: 49)]
27 | binds | AAIYRDYDVFGGGTPLGQ [PMP54G2]
28 | binds | AAWYFDYDVFGGGTADGE [PMP56H6]
29 | binds | AAYYFDYDVFGGGTPEGT [PMP56C1]
30 | binds | AAFYWDYDVFGGGTDPGA [PMP56H3]
31 | binds | AARYYDYDVFGGGTPLGG [PMP56F5]
32 | binds | AAMYYDYDVFGGGTPTGA [PMP56C5]
33 | binds | AAFYRDYDVFGGGTGSGN [PMP54E1]
34 | binds | AAAYWDYDVFGGGTSAGT [PMP54H2]

Row | binding result | Binder
35 | binds | AALYKDYDVFGGGTPGGE [PMP56D4]
36 | binds | AATYYDYDVFGGGTPLGQ [PMP56D5]
37 | binds | AAYYYDYDVFGGGTPGGE [PMP54G3 (SEQ ID NO: 44)]
38 | binds | AADYYDYDVFGGGTSVGE [PMP56A1]
39 | binds | AAVYDDYDVFGGGTPVGG [PMP56B3]
40 | binds | AALYRDYDVFGGGTPVGG [PMP56F6]
41 | binds | AALYRDYDVFGGGTPVGG [PMP56B5]
42 | binds | AARYYDYDVFGGGTVVGE [PMP54B2]
43 | binds | AASYLDYDVFGGGTPFGE [PMP54H1]
44 | binds | AARYFDYDVFGGGTPAGD [PMP56B2]
45 | binds | AALYRDYDVFAGGTPGGG [PMP54E2]
46 | binds | AATYLDYDVFGGGTPDGR [PMP54E3]
47 | binds | AAWYRDYDVFGGGTDEGS [PMP54B1]
48 | binds | AARYWDYDVFGGGTDPGG [PMP56G2]
49 | binds | AARYWDYDVFGGGTPQGE [PMP56B1]
50 | binds | AAWYFDYDVFGGGTADGE [PMP56F3]
51 | binds | AAFYMDYDVFGGGTPRGQ [PMP56A4]
52 | binds | AAFYWDYDVFGGGTDPGA [PMP56G3]
53 | binds | AAWYRDYDVFGGGTPLGA [PMP56H1]
54 | binds | AARYLDYDVFGGGTPIGE [PMP54C3]
55 | binds | AAYYRDYDVFGGGTPVGE [PMP56A5]
56 | binds | AAPYHDYDVFGGGTPVGE [PMP56A2]
57 | binds | AASYRDYDVFGGGTPRGW [PMP54H3]
58 | binds | AAYYYDYDVFGGGTPGGE [PMP56E1]
59 | binds | AARYYDYDVFGGGTPLGG [PMP56G6]
60 | binds | AAAYLDYDVFGGGTPVGG [PMP56G5]
